From patent US20180044393A1 (INSERM INSTITUT NATIONAL DE LA SANT ET DE LA RECHERCHE M …, published 2018)
Positions of bridges follow the written chain, without caps; N, C: chain ends. No end group written: not given here. *: point of attachment. 125I = [125I]*

Columns and labels:
Assay in all cases: 125I-OxA binding on CHO-S cells expressing the OX1R mutant
OX1R L320A = biological target: T1, OX1R L320A (human, UniProt O43613 1-425)
T1 construct: site-directed mutant (TM6) stably expressed in CHO-S cells; not shown: YFP from vector pEYFP-N2 fused at the C-terminus
T1 chain: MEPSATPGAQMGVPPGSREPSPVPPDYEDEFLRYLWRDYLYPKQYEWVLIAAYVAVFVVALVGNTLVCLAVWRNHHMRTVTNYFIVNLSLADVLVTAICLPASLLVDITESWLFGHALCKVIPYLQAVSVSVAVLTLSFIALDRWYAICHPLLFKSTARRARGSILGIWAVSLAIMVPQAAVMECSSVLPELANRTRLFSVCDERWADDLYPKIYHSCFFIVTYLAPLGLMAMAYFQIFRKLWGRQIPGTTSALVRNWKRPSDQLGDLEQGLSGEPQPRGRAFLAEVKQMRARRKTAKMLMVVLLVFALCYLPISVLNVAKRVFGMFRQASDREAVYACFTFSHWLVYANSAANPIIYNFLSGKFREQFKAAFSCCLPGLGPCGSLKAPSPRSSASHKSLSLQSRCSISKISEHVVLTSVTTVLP
Procedure: (§1) CHO—S cells expressing recombinant native or mutated OX1R were grown as previously described (El Firar et al., 2009) and maintained at 37° C. in a humidified 5% CO₂/air incubator. ¹²⁵I-orexia-A (74 TBq/mmol) was prepared as previously described (El Firar et al., 2009). […] Free peptides were removed by 2 cell washing cycles with PBS. […] Data were analyzed using the GraphPad software (http://www.graphpad.com).
(§2) All residues of OX1R fulfilling this condition were mutated to alanine by site-directed mutagenesis (Table II).

OX1R V319A = biological target: T2, OX1R V319A (human, UniProt O43613 1-425)
T2 construct: site-directed mutant (TM6) stably expressed in CHO-S cells; not shown: YFP from vector pEYFP-N2 fused at the C-terminus
T2 chain: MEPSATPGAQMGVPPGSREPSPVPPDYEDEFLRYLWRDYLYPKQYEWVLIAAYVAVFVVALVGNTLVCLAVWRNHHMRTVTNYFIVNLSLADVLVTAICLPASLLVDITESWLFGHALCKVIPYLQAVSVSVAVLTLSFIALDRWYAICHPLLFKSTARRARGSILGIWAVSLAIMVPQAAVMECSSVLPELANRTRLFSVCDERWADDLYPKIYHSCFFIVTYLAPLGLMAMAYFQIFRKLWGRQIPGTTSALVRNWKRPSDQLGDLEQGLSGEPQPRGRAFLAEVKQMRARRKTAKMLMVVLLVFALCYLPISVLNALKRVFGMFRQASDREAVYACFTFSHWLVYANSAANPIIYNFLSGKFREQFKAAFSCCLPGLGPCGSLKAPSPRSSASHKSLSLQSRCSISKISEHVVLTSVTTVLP
Procedure: as §1, §2

OX1R C99A = biological target: T3, OX1R C99A (human, UniProt O43613 1-425)
T3 construct: site-directed mutant (TM2) stably expressed in CHO-S cells; not shown: YFP from vector pEYFP-N2 fused at the C-terminus
T3 chain: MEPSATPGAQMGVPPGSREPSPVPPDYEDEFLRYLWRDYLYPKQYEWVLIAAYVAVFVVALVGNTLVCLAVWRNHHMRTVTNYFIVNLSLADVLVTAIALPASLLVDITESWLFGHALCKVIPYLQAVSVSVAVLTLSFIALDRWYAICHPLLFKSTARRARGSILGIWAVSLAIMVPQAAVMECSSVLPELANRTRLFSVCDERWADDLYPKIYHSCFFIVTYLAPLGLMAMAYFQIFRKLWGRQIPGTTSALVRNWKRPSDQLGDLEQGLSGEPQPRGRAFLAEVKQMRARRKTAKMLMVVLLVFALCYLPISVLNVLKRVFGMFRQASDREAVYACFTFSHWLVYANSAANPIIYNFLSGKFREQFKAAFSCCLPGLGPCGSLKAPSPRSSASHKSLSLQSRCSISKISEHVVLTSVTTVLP
Procedure: as §1, §2

OX1R V121A = biological target: T4, OX1R V121A (human, UniProt O43613 1-425)
T4 construct: site-directed mutant (TM3) stably expressed in CHO-S cells; not shown: YFP from vector pEYFP-N2 fused at the C-terminus
T4 chain: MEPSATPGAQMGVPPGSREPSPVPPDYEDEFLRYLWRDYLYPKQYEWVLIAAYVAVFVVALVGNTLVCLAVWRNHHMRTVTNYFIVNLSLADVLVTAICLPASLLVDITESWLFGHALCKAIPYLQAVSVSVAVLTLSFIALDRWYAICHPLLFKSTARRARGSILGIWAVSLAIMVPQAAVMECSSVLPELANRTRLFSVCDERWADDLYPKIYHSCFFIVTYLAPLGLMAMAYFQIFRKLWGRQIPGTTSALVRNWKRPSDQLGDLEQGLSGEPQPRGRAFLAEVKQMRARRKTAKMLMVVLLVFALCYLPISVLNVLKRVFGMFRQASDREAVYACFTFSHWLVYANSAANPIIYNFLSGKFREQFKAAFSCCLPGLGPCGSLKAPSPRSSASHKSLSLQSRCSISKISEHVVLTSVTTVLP
Procedure: as §1, §2

Measured: binding result

QPLPDCCRQKTCSCRLY(125I)ELLHGAGNHAAGILTL (peptide, UniProt O43612 34-66, looked up, disulfide 6-12, 7-14; not fully specified (residue 1, C-terminus), mature; also called OxA) [125I-orexin-A]
binds: all assays above
